Measured values reported in patent US20210269480A1 (published 2021).
*1 amine or outer side, *2 acyl side, *3 side chain or, on linkers, in order; H or OH if unused. Bridges are numbered along the chain shown (N, C = ends). Where no end group is shown, it is not given here. [ ]: non-standard residue; d: D form. TATA = O=C(CC[*:1])N1CN(C(=O)CC[*:2])CN(C(=O)CC[*:3])C1; 1Nal = N[C@@H](Cc1cccc2ccccc12)C(=O)O; 2Nal = N[C@@H](Cc1ccc2ccccc2c1)C(=O)O; NMehArg = CN[C@@H](CCCCNC(=N)N)C(=O)O; Hyp = O=C(O)[C@@H]1C[C@@H](O)CN1; NMeI = CC[C@H](C)[C@H](NC)C(=O)O; NMeT = CN[C@H](C(=O)O)[C@@H](C)O; dCya = N[C@H](CS(=O)(=O)O)C(=O)O; hArg = N=C(N)NCCCC[C@H](N)C(=O)O; NMeN = CN[C@@H](CC(N)=O)C(=O)O; Agb = N=C(N)NCC[C@H](N)C(=O)O; Nle = CCCC[C@H](N)C(=O)O

T1: human Nectin-4 (human, UniProt Q96NY8 32-349)
T1 construct: a Gly32-Ser349 FLAG construct is described only under the SPR assay; also called PVRL4
T1 sequence (looked up): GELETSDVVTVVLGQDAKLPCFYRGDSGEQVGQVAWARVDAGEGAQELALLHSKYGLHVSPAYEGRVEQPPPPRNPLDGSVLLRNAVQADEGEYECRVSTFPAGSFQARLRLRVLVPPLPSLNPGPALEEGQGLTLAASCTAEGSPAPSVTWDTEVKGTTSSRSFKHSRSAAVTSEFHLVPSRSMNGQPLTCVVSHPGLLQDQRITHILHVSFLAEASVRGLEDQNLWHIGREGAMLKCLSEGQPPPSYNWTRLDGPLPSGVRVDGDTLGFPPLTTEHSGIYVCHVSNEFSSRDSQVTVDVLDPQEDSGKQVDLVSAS


biological target: T1, human Nectin-4; experiment: FP competition, tracer SEQ ID NO 217
Protocol: Peptides were diluted to an appropriate concentration in assay buffer as described in the direct binding assay with a maximum of 5% DMSO, then serially diluted 1 in 2. […] Measurements were conducted as for the direct binding assay, however the gain was determined prior to the first measurement. Data analysis was in Systat Sigmaplot version 12.0 where the mP values were fit to a user defined cubic equation to generate a Ki value: […]

Row | Ki | Binder
1 | 8 nM | Ac-CPF[dD]CM[hArg][NMeN]WSTPIWC (linker 1-5-15 via TATA) [BCY8154]
2 | 5 nM | Ac-CPF[dD]CM[hArg]NWS[NMeT]PIWC (linker 1-5-15 via TATA) [BCY8157]
3 | 173 nM | HDSCPFGCMKSWSWPIWCA (linker 4-8-18 via TATA) [BCY3393]
4 | 20.6 nM | ACPFGCMKNWSWPIWCTNA (linker 2-6-16 via TATA, also called 80-09-02-T01-N018) [BCY7348]
5 | 39.8 nM | ACPFGCMKNWSWPAWCTNK (linker 2-6-16 via TATA, also called 80-09-02-T01-N014) [BCY7344]
6 | 44.4 nM | QKWCAPLSDYWCN[hArg]ICA (linker 4-12-16 via TATA) [BCY7279]
7 | 69 nM | Q[hArg]WCAPLSDYWCNRICA (linker 4-12-16 via TATA) [BCY7278]
8 | 41 nM | ACPFGCMXNWSWPIWCTNK (core CPFGCM[K(Ac)]NWSWPIWC; TATA on 3 Cys) [BCY7266]
9 | 3 nM | Ac-CP[1Nal][dR]CMPDWSTP[Hyp]WC (linker 1-5-15 via TATA) [BCY8193]
10 | 17.4 nM | ACPFGCMKGWSWPIWCLKD (linker 2-6-16 via TATA) [BCY3395]
11 | 3.1 nM | Ac-CP[1Nal][dD]CM[hArg]HWSTP[Hyp]WC (linker 1-5-15 via TATA) [BCY8125]
12 | 3.1 nM | Ac-CP[1Nal][dR]CM[hArg]HWSTP[Hyp]WC (linker 1-5-15 via TATA) [BCY8129]
13 | 26.1 nM | Ac-CP[1Nal][dR]CM[hArg]DWDTP[Hyp]WC (linker 1-5-15 via TATA) [BCY8185]
14 | 2.2 nM | Ac-CP[1Nal][dR]CM[hArg]NWSTP[Hyp]WC (linker 1-5-15 via TATA) [BCY8128]
15 | 6.3 nM | Ac-CP[1Nal][dR]CL[hArg]HWSTP[Hyp]WC (linker 1-5-15 via TATA) [BCY8214]
16 | 5 nM | Ac-CP[1Nal][dR]CM[hArg]DWTTP[Hyp]WC (linker 1-5-15 via TATA) [BCY8187]
17 | 5 nM | Ac-CP[1Nal][dR]CM[Agb]DWSTP[Hyp]WC (linker 1-5-15 via TATA) [BCY8192]
18 | 102 nM | ACPFGCMKTWSWPIWCTDK (linker 2-6-16 via TATA) [BCY3394]
19 | 154 nM | ACWPLDDYWCPRICPQA (linker 2-10-14 via TATA) [BCY3401]
20 | 38.3 nM | ACPFGCM[hArg]NWSWPIWCTNK (linker 2-6-16 via TATA) [BCY7265]
21 | 198 nM | MDTCPFGCMEDWSWPIWCA (linker 4-8-18 via TATA) [BCY3391]
22 | 410 nM | ACPFGCMSDWSWPIWCSTD (linker 2-6-16 via TATA) [BCY3399]
23 | 177 nM | Ac-CPF[dD]CM[hArg]NWSTP[NMeI]WC (linker 1-5-15 via TATA) [BCY8158]

The next lines start with the binder.

Row | Binder | Ki
24 | [dH]DSCPFGCMKSWSWPIWCA (linker 4-8-18 via TATA) [BCY7272] | 41 nM
25 | Ac-CP[1Nal][dCya]CM[hArg]DWSTP[Hyp]WC (linker 1-5-15 via TATA) [BCY8163] | 3 nM
26 | HDSCPFGCMK(Ac)SWSWPIWCA (linker 4-8-18 via TATA) [BCY7273] | 84 nM
27 | Ac-CP[1Nal][dR]CM[Hyp]DWSTP[Hyp]WC (linker 1-5-15 via TATA) [BCY8194] | 3.5 nM
28 | ACPFGCMKNWSWPIWCTN[hArg] (linker 2-6-16 via TATA, also called 80-09-02-T01-N003) [BCY7281] | 22.9 nM
29 | DSECPFGCMSGWSWPIWCA (linker 4-8-18 via TATA) [BCY3389] | 99.8 nM
30 | HDSCPFGCM[dK]SWSWPIWCA (linker 4-8-18 via TATA) [BCY7276] | 326 nM
31 | ACPFGCMKNWSAPIWCTNK (linker 2-6-16 via TATA, also called 80-09-02-T01-N012) [BCY7342] | 310 nM
32 | ACPFGCMKNWSWPIWCTAK (linker 2-6-16 via TATA, also called 80-09-02-T01-N017) [BCY7347] | 36.1 nM
33 | ACPFGCMKNWSWPIWCANK (linker 2-6-16 via TATA, also called 80-09-02-T01-N016) [BCY7346] | 64.9 nM
34 | ACPFGCIKSWSWPIWCQME (linker 2-6-16 via TATA) [BCY3397] | 33.2 nM
35 | HDSCPFGCM[hArg]SWSWPIWCA (linker 4-8-18 via TATA) [BCY7275] | 43.3 nM
36 | Ac-CP[2Nal][dR]CM[hArg]DWSTP[Hyp]WC (linker 1-5-15 via TATA) [BCY8186] | 6 nM
37 | Ac-CP[1Nal][dR]CM[hArg]DWSSP[Hyp]WC (linker 1-5-15 via TATA) [BCY8191] | 4.5 nM
38 | Ac-CP[1Nal][dD]CM[hArg]DWSSP[Hyp]WC (linker 1-5-15 via TATA) [BCY8180] | 3 nM
39 | Ac-CP[1Nal][dR]CL[hArg]DWSTP[Hyp]WC (linker 1-5-15 via TATA) [BCY8213] | 3.5 nM
40 | Ac-CP[1Nal][dD]CM[hArg]DWDTP[Hyp]WC (linker 1-5-15 via TATA) [BCY8174] | 12.3 nM
41 | Ac-CP[1Nal][dD]CM[hArg]DWTTP[Hyp]WC (linker 1-5-15 via TATA) [BCY8176] | 3.5 nM
42 | Ac-CP[1Nal][dD]CL[hArg]DWSTP[Hyp]WC (linker 1-5-15 via TATA) [BCY8212] | 3 nM
43 | ACPFGCQEDWSWPIWCLSE (linker 2-6-16 via TATA) [BCY3398] | 164 nM
44 | Ac-CPF[dD]CM[NMehArg]NWSTPIWC (linker 1-5-15 via TATA) [BCY8153] | 35 nM
45 | Ac-CP[1Nal][dR]CM[hArg]DWSTP[Hyp]WC (linker 1-5-15 via TATA) [BCY8184] | 3.2 nM
46 | HDSCPFGC[Nle]KSWSWPIWCA (linker 4-8-18 via TATA) [BCY7274] | 90.5 nM
47 | HDACPFGCMEGWSWPIWCA (linker 4-8-18 via TATA) [BCY3390] | 302 nM
48 | DPGCPFGCMPGWSWPIWCA (linker 4-8-18 via TATA) [BCY3392] | 36.3 nM
49 | ACPFGCQEHWSWPIWCTTA (linker 2-6-16 via TATA) [BCY3396] | 102 nM
50 | QK(Ac)WCAPLSDYWCNRICA (linker 4-12-16 via TATA) [BCY7280] | 219 nM
51 | Ac-CP[1Nal][dD]CMPDWSTP[Hyp]WC (linker 1-5-15 via TATA) [BCY8182] | 2 nM
